Article PMC9941469

Molecular target: phosphorylated Smad5 (pSmad5), mouse (UniProt P97454)
Experiment: Co-Immunoprecipitation
Conditions: parent: est. 100; read off a plot

UniProt P97454, sequence (P97454 whole entry): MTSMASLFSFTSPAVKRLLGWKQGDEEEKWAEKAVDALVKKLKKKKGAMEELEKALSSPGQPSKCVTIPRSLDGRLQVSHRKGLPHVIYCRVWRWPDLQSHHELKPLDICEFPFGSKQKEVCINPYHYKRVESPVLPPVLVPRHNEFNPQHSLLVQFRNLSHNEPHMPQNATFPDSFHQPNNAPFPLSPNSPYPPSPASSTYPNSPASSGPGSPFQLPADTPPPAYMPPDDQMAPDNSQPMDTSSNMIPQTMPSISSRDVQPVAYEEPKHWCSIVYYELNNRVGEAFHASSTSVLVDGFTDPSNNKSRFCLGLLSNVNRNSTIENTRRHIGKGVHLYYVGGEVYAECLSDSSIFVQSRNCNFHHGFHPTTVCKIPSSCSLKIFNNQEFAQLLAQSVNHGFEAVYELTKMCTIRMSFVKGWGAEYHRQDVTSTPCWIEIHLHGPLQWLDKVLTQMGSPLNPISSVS

percent of parent: 70 % of WT
Substance: Hoxd13 (homeobox D13), wild type, mouse (from UniProt P70217) R306L
